Values of other authors as cited in PMC4407497.

How the values were obtained:
[1] = target: IL-22BP (Homo sapiens) (UniProt Q969J5)
[2] = target: IL-22R1 (Homo sapiens) (UniProt Q8N6P7)
Sequence of UniProt Q8N6P7 (Q8N6P7 16-228): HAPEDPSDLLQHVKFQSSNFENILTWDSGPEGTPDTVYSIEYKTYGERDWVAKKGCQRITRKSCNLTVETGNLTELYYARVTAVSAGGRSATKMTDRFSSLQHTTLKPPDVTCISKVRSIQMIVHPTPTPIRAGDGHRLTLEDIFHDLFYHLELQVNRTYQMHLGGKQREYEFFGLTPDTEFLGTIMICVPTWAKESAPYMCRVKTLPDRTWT

Sequence of UniProt Q969J5 (Q969J5 22-263): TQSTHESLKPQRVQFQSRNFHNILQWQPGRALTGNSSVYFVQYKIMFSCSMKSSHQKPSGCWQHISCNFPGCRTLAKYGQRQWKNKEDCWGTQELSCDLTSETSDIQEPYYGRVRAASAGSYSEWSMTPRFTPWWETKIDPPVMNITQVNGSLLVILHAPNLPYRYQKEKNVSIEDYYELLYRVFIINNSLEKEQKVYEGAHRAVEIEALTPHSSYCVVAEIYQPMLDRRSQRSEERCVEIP

Kd [1]: 0.001 nM
Kd [2]: 20 nM
Substance: IL-22 (from UniProt Q9GZX6)
